The supplement of paper PMC9233669
Variants at the floor of the assay were thinned out.

Assays:
biotinyl-Phe-oxazolone = assay: self-aminoacylation, catalytic enhancement (BFO) (fold over background); higher = more active; k-Seq, kA / k0A0; sequences stand for … in GGGAAUGGAUCCACAUCUACGAAUUC…UUCACUGCAGACUUGACGAAGCUG
In short: (§1)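 Mutagenized RNA pools (0.43 μM; 21-nt variable region) were treated with 2–1250 μM of each biotinyl-aminoacyl-oxazolone. Conditions were 50 μL HEPES/NaCl/KCl/MgCl2/CaCl2 buffer, 5% acetonitrile, pH 6.9–7.0, room temperature, 90 minutes. Catalytic enhancement, the median kA relative to the uncatalyzed rate, was derived from streptavidin capture, qPCR and Illumina sequencing.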

biotinyl-Ile-oxazolone = assay: self-aminoacylation, catalytic enhancement (BIO) (fold over background); higher = more active; k-Seq, kA / k0A0; sequences stand for … in GGGAAUGGAUCCACAUCUACGAAUUC…UUCACUGCAGACUUGACGAAGCUG
In short: as §1

biotinyl-Met-oxazolone = assay: self-aminoacylation, catalytic enhancement (BMO) (fold over background); higher = more active; k-Seq, kA / k0A0; sequences stand for … in GGGAAUGGAUCCACAUCUACGAAUUC…UUCACUGCAGACUUGACGAAGCUG
In short: as §1

biotinyl-Val-oxazolone = assay: self-aminoacylation, catalytic enhancement (BVO) (fold over background); higher = more active; k-Seq, kA / k0A0; sequences stand for … in GGGAAUGGAUCCACAUCUACGAAUUC…UUCACUGCAGACUUGACGAAGCUG
In short: as §1

biotinyl-Leu-oxazolone = assay: self-aminoacylation, catalytic enhancement (BLO) (fold over background); higher = more active; k-Seq, kA / k0A0; sequences stand for … in GGGAAUGGAUCCACAUCUACGAAUUC…UUCACUGCAGACUUGACGAAGCUG
In short: as §1

biotinyl-Trp-oxazolone = assay: self-aminoacylation, catalytic enhancement (BWO) (fold over background); higher = more active; k-Seq, kA / k0A0; sequences stand for … in GGGAAUGGAUCCACAUCUACGAAUUC…UUCACUGCAGACUUGACGAAGCUG
In short: as §1

Sequence | self-aminoacylation (biotinyl-Phe-oxazolone) | self-aminoacylation (biotinyl-Ile-oxazolone) | self-aminoacylation (biotinyl-Met-oxazolone) | self-aminoacylation (biotinyl-Val-oxazolone) | self-aminoacylation (biotinyl-Leu-oxazolone) | self-aminoacylation (biotinyl-Trp-oxazolone)
AUUACCCUGGUUAUCGCGUGA [Fam2.1 aminoacylation ribozyme variant] | 93.6 | 4.99 | 12.4 | 6.04 | 11.6 | 13.5
AUUACCCUGGUUCUCGAGUGA [Fam2.1 aminoacylation ribozyme variant] | 8.08 | 1.78 | 2.08 | 2.2 | 3.1 | 3.34
AUUACCCUGGUUGUCGAGUGA [Fam2.1 aminoacylation ribozyme variant] | 1.97 | 1.38 | 1.91 | 1.33 | 1.85 | 3.23
AUUACCCUGUGCAUCGAGUGA [Fam2.1 aminoacylation ribozyme variant] | 16.8 | 2.47 | 6.14 | 3.05 | 5.11 | 5.89
AUUACCCUGUUCAGCGAGUGA [Fam2.1 aminoacylation ribozyme variant] | 14.4 | 2.51 | 5.05 | 2.96 | 4.4 | 6.39
AUUACCCUGUUCAUCGCGUGA [Fam2.1 aminoacylation ribozyme variant] | 171 | 9.25 | 23.5 | 11.7 | 25.1 | 25.5
AUUACCCUUGACAUCGAGUGA [Fam2.1 aminoacylation ribozyme variant] | 50.8 | 4.31 | 10.8 | 5.25 | 11 | 13.5
AUUACCCUUGUCAACGAGUGA [Fam2.1 aminoacylation ribozyme variant] | 21.7 | 3.27 | 5.49 | 3.44 | 6.71 | 7.03
AUUACCCUUGUCACCGAGUGA [Fam2.1 aminoacylation ribozyme variant] | 50.2 | 4.01 | 8.49 | 4.31 | 9.28 | 11.1
AUUACCCUUGUCAUAGAGUGA [Fam2.1 aminoacylation ribozyme variant] | 36.6 | 4.36 | 8.7 | 4.59 | 8.53 | 11
AUUACCCUUGUCAUCCAGUGA [Fam2.1 aminoacylation ribozyme variant] | 9.92 | 2.21 | 3.41 | 2.25 | 3.44 | 3.96
AUUACCCUUGUCAUCGAGCGA [Fam2.1 aminoacylation ribozyme variant] | 0.755 | 1.49 | 1.12 | 1.19 | 1.67 | 0.631
AUUACCCUUGUUAUCGAGUGA [Fam2.1 aminoacylation ribozyme variant] | 116 | 7.09 | 15.9 | 6.96 | 14.7 | 19.6
AUUACCGUGGUCAUCCAGUGA [Fam2.1 aminoacylation ribozyme variant] | 28.8 | 3.52 | 5.39 | 3.32 | 5.29 | 6.67
AUUACCGUGGUCAUCGAGAGA [Fam2.1 aminoacylation ribozyme variant] | 0.92 | 1.11 | 0.605 | 1.18 | 0.723 | 0.794
AUUACCGUGGUCAUCGAGUAA [Fam2.1 aminoacylation ribozyme variant] | 1.2 | 1.42 | 1.35 | 1.58 | 1.56 | 1.93
AUUACCGUGGUCAUCGUGUGA [Fam2.1 aminoacylation ribozyme variant] | 5.4 | 1.3 | 1.64 | 1.25 | 2.49 | 2.03
AUUACCGUGGUCAUGGAGUGA [Fam2.1 aminoacylation ribozyme variant] | 12.2 | 2.27 | 3.21 | 2.37 | 3.43 | 3.69
AUUACCUUGGACAUCGAGUGA [Fam2.1 aminoacylation ribozyme variant] | 26.3 | 3.16 | 5.7 | 2.9 | 6.08 | 7.94
AUUACCUUGGUCAUCGAGUGG [Fam2.1 aminoacylation ribozyme variant] | 1.64 | 1.67 | 2.08 | 1.45 | 2.13 | 0.873
AUUACCUUGGUCAUUGAGUGA [Fam2.1 aminoacylation ribozyme variant] | 32.4 | 4.08 | 8.51 | 4.11 | 7.89 | 10.2
AUUACGCGGGUCAUCGAGUGA [Fam2.1 aminoacylation ribozyme variant] | 22.7 | 3.23 | 5.54 | 3.31 | 4.86 | 5.54
AUUACGCUGGACAUCGAGUGA [Fam2.1 aminoacylation ribozyme variant] | 16.1 | 2.63 | 4.42 | 2.98 | 4.51 | 4.65
